Source: patent publication US7030099B2, “Tumor specific promoters of the midkine gene that allow for selective expression in P53-inactivated cells” (Research Corporation Technologies, Inc., priority 2000, dated 2006)

B1: p533: c-erbB-2 genomic region from −435 to +38, SEQ ID NO: 7; conventionally used promoter (nucleic acid, listed as Homo sapiens)
DNA: GGGGGTCCTGGAAGCCACAAGGTAAACACAACACATCCCCCTCCTTGACTATCAATTTTACTAGAGGATGTGGTGGGAAAACCATTATTTGATATTAAAACAAATAGGCTTGGGATGGAGTAGGATGCAAGCTCCCCAGGAAAGTTTAAGATAAAACCTGAGACTTAAAAGGGTGTTAAGAGTGGCAGCCTAGGGAATTTATCCCGGACTCCGGGGGAGGGGGCAGAGTCACCAGCCTCTGCATTTAGGGATTCTCCGAGGAAAAGTGTGAGAACGGCTGCAGGCAACCCAGGCGTCCCGGCGCTAGGAGGGACGACCCAGGCCTGCGCGAAGAGAGGGAGAAAGTGAAGCTGGGAGTTGCCGACTCCCAGACTTCGTTGGAATGCAGTTGGAGGGGGCGAGCTGGGAGCGCGCTTGCTCCCAATCACAGGAGAAGGAGGAGGTGGAGGAGGAGGGCTGCTTGAGGAAGTATAAGAATGAAGTTGTGAAGCTGAGATTCCCCTCCATTGGGACCGGAGAAACCAGGGGAGCCC
B2: MK1.0: 1.0 kb of the human midkine genomic gene, base sequence SEQ ID NO: 2 (nucleic acid, listed as Homo sapiens)
DNA: GGCCGCGCTCGTCGGGGCCGGGCGGGGGCCGATCCCTCCGGCTTCCCTTCCCGCGGAGAACAACAATGAAAGTGAAAGAGGGGTGGGGCGGGGGCGAGCCCGGGTTCTGTGGCCCATTTGCCCTGTGGCCTTGAGCAAGCCCCTCCCCCAGGCCTCGGGGGCTCTCCCGGTTTGGGGGAACCGGGCGAGGCAATGCCACAGGCCCAGGGTTAGAGGGGGTGGGCACTTGCAGCTGCCGATGTGGCTGGATCTGGAACTTCTCAGACGGCTCCTGTCAGCGCCAAGTTTCACCAAATCCAGGCCTGCGGGCTCCTCCCCCAGGACCCCCACTCGCAGTCCCTCAAGCCTGTGCTCCCGGAAAGGCACTGGGCGACCGCACCCGTGGCTTTCTCTGGGCGACCGGGTCCCAGACTCCCCCCAGCACAGCAGAGCGCTTCCCTGCCCACCCGCGGAAACCGCCCCAGGTGGCCGCGCCCCCTCCCCAGCAGCCAGCAGGGCGCCAGGGCTGAGCCGGCCGTGGAGGGGAGCGGGTCCCGGGGGTTATACAGGCGCCGGGCGTCCGCGGCAGGCAAGAGAAGCTGAGGCCTGAGAACGGCCCGGGCCTTGGCGTACGGCAGGGGACGACCTGGGATGGGGGCAGCGGGCGGCGGCGCAGGGAGTGGGCCGGGGCCGGTGTGCGCGGGCGGGACGGGGCCGGGGTCGGGAGACCACCGCTCGGAAGATGGGGCCGGGAGAGGCCGCCGTCGCAGCGCAGAGGGCACCGGCGGGGAGACGCGAGGACGCGGGGCCGGGAACACGGACGCCGGAGTAGAAGCGCGGGGGGGGCGGGCTGGAGCGGGGGCGGGGACGCCGGGGTCGGGGGCGGTGCGGGTTTGAGGGGAGGGGGCGGGGCGGGTCCTTCCCTGGGGGGGTGGGGAGAGGGGGCGGGGGCCCATGTGACCGGCTCAGACCGGTTCTGGAGACAAAAGGGGCCGCGGCGGCCGGAGCGGGACGGGCCCGGCGCGGGAGGGAGCGAAGCAGCGCGGGCAGCGAGCGAGTGAG
B3: p124: c-erbB-2 genomic region −86/+38, SEQ ID NO: 10 (nucleic acid, listed as Homo sapiens)
DNA: CGCGCTTGCTCCCAATCACAGGAGAAGGAGGAGGTGGAGGAGGAGGGCTGCTTGAGGAAGTATAAGAATGAAGTTGTGAAGCTGAGATTCCCCTCCATTGGGACCGGAGAAACCAGGGGAGCCC
modifications: expressed or natural sequence
B4: p344: c-erbB-2 genomic region −306/+38, SEQ ID NO: 8 (nucleic acid, listed as Homo sapiens)
DNA: CTAGGGAATTTATCCCGGACTCCGGGGGAGGGGGCAGAGTCACCAGCCTCTGCATTTAGGGATTCTCCGAGGAAAAGTGTGAGAACGGCTGCAGGCAACCCAGGCGTCCCGGCGCTAGGAGGGACGACCCAGGCCTGCGCGAAGAGAGGGAGAAAGTGAAGCTGGGAGTTGCCGACTCCCAGACTTCGTTGGAATGCAGTTGGAGGGGGCGAGCTGGGAGCGCGCTTGCTCCCAATCACAGGAGAAGGAGGAGGTGGAGGAGGAGGGCTGCTTGAGGAAGTATAAGAATGAAGTTGTGAAGCTGAGATTCCCCTCCATTGGGACCGGAGAAACCAGGGGAGCCC

How the values were obtained:
[1] = system: immortalized MRC-5 cells (p53 functions inactivated); test: In vitro sensitivity to GCV of promoter-TK gene-introduced cells (Cell Counting Kit-8 survival); type: cell-based, human; settings: HSV-TK gene powered by the promoter, GCV seven days, FIG. 2B
Procedure: (§1) (1) In order to examine cytotoxic effects by the transcription activity of the promoter obtained from the midkine gene, herpes simplex virus thymidine kinase (HSV-TK), a suicide gene, was ligated downstream of MK0.6 and MK2.3, and the plasmid was introduced in cells, and a prodrug gancyclovir (GCV) was added into the culture medium of the gene-introduced cells. The method of determining the cytotoxic effect by this system is as described in Moolten, FL. Cancer Gene Ther., 1:279–287, 1994.
(§2) First, the CMV promoter of pcDNA3 (manufactured by Invitrogen) was removed using NruI and HindIII sites, to which MK2.3 or Mk0.6 was inserted, and then using the EcoRV site, the HSV-TK gene excised from pMK (Brinster, R L et al., Cell, 27:223–231, 1981) with BglI and EcoRI was inserted. Each of the plasmids thus obtained (MK2.3-TK and MK0.6-TK) was introduced, as described above, using lipofectin into MRC-5 which are normal cells, or MRC-5 cells that had been immortalized by inactivating the functions of the p53 tumor suppressor gene. In order to utilize the expression of the Neo gene contained in pcDNA3 as drug resistant markers, the cells were cultured with 400 μg/ml of G418 (manufactured by Life Technologies) for ten days to establish the cells that expressed MK2.3-TK and MK0.6-TK, respectively. These cells were then plated at 500 cells/well of 96-well culture plates, and were cultured in the presence of various concentrations of GCV (manufactured by F. Hoffman-La Roche) for seven days. The survival rate of the cells was examined using the Cell Counting Kit-8 (manufactured by Dojin Kagaku). The survival of the cells at a GCV concentration of 0 μg/ml was set as 100%, and the survival for each experiment group is shown in terms of percentage in FIG. 2A and FIG. 2B.

[2] = system: normal MRC-5 cells; test: as above; type: cell-based, human; settings: HSV-TK gene controlled by the promoter, GCV seven days, FIG. 2A
Procedure: as §1, §2

[3] = system: lung cancer cells QG-56, neuroblastoma NGP; test: CAT assay of promoter transcription activity, tumor cells; type: cell-based, human; settings: tumor cells versus normal cells
Procedure: Using the above plasmid, or a plasmid pCAT-Control (manufactured by Promega) having the promoter of SV40 virus, and a plasmid pCAT-Basic (manufactured by Promega) containing no promoters, gene introduction was performed on the lung cancer cells QG-56, the neuroblastoma NGP, and the normal human fibroblasts MRC-5 that were being cultured in a DMEM (Sigma) supplemented with 10% bovine fetal serum. After 10 μg each of these plasmids and lipofectin (Life Technologies) were mixed, it was allowed to stand at room temperature for 30 minutes to form a complex. Then the complex, after removing the bovine fetal serum therefrom, was contacted with the cells. Eight hours later culture medium supplemented with bovine fetal serum was added, cultured for 40 hours, and then the gene-introduced cells were disrupted by ultrasonication. After centrifugation, the supernatants were used to examine their transcription activities with the known CAT assay method (Gorman, C M et al., Mol. Cell. Biol., 2:1044–1051, 1982) using [^14C]-chloramphenicol and acetyl CoA. At this time, in order to normalize the efficiency of gene introduction, 1 μg of the β-galactosidase gene (pCH110, manufactured by Amersham) was introduced at the same time, and the β-galactosidase activity (Heromel, P. et al., Cell, 39:653–662, 1984) was determined.

[4] = system: normal human fibroblasts HEF, MRC-5; test: Luciferase assay of c-erbB-2 promoter activity, normal fibroblasts; type: cell-based; settings: FIG. 7B
Procedure: (§3) With the transcription initiation site of the c-erbB-2 gene as +1, DNA that corresponded to a genomic region (p533) from −435 to +38 and that had the sequence set forth in SEQ ID NO: 7 was amplified by the PCR method, and then the DNA fragment was integrated into the pGEM-TEasy (manufactured by Promega), and the sequences of the PCR product was determined. Thus, after inserting this PCR product into the SmaI site of pGL2-Basic (manufactured by Promega), it was cleaved with BlnI/SmaI, PstI/SmaI, and BssHII/SmaI using the restriction enzyme sites present on the c-erbB-2 genomic gene to construct plasmids in which the genomic regions of c-erbB-2, p344 (−306/+38) (DNA having the base sequence set forth in SEQ ID NO: 8), p251 (−213/+38) (DNA having the base sequence set forth in SEQ ID NO: 9) and p124 (−86/+38) (DNA having the base sequence set forth in SEQ ID NO: 10) are localized upstream of the Firefly luciferase gene, respectively. Using the plasmid pGL2-Control (manufactured by Promega) having the promoter of SV40 virus and the plasmid pGL2-Basic (manufactured by Promega) containing no promoters, gene introduction was performed in human breast cancer cells OCUBM, MCF7, BT549, normal human fibroblasts HEF, MRC-5, human malignant melanoma A875, and human lung cancer cells QG-56, all of which were cultured in DMEM (Sigma) supplemented with 10% bovine fetal serum. Firstly, after 10 μg each of these plasmids and lipofectin (Life Technologies) were mixed, it was allowed to stand at room temperature for 30 minutes to form a complex of DNA and lipid. Then the complex, after removing the bovine fetal serum therefrom, was contacted with the cells. Eight hours later culture medium supplemented with bovine fetal serum was added. After 48 hours-culture, the cells were disrupted using the Dual-Luciferase Reporter Assay System (manufactured by Promega), and the Firefly luciferase activity therein was determined using the reagents in the same kit. In order to normalize the efficiency of gene introduction, 1 μg of pRL-TK plasmid (manufactured by Promega) was included in each gene-introduced group, and the Renilla luciferase activity by the TK promoter was determined, based on which the Firefly luciferase activity was corrected.

[5] = system: human malignant melanoma A875, human lung cancer cells QG-56; test: Luciferase assay of c-erbB-2 promoter activity, non-breast tumor cells; type: cell-based; settings: human malignant melanoma cells and human lung cancer cells; FIG. 7C
Procedure: as §3

[6] = system: human breast cancer cells OCUBM, MCF7, BT549; test: Luciferase assay of c-erbB-2 promoter activity, breast cancer cells; type: cell-based; settings: FIG. 7A
Procedure: as §3, with “Then the complex, after removing the bovine fetal serum therefrom, was contacted with the cells. Eight hours later culture medium supplemented with bovine fetal serum was added.” left out

| Molecule | tumor-specificity of promoter activity [3] | promoter activity compared with SV40 promoter [4] | transcription activity compared with SV40 promoter [5] | further results |
| --- | --- | --- | --- | --- |
| MK2.3: 2.3 kb of the human midkine genomic gene, base sequence SEQ ID NO: 3; previously reported promoter [reference compound] | weak |  |  | sensitivity to GCV compared to that of the parent strain [1]: 1000 fold; sensitivity to GCV compared to that of the parent strain [2]: 500 fold |
| B1 |  | more potent than the SV40 promoter activity in some cases |  |  |
| B2 | weak |  |  |  |
| B3 |  |  | lower than the SV40 promoter | transcription activity compared with other c-erbB-2 promoter fragments [6]: marked low compared with the p251 promoter |
| B4 |  | more potent than the SV40 promoter activity in some cases | lower than the SV40 promoter |  |
